{"source": "patent US20050208021", "key": {"[1]": {"system": "T1, PhiC31 integrase wild type (Bacteriophage Phi-C31)", "T1 sequence": "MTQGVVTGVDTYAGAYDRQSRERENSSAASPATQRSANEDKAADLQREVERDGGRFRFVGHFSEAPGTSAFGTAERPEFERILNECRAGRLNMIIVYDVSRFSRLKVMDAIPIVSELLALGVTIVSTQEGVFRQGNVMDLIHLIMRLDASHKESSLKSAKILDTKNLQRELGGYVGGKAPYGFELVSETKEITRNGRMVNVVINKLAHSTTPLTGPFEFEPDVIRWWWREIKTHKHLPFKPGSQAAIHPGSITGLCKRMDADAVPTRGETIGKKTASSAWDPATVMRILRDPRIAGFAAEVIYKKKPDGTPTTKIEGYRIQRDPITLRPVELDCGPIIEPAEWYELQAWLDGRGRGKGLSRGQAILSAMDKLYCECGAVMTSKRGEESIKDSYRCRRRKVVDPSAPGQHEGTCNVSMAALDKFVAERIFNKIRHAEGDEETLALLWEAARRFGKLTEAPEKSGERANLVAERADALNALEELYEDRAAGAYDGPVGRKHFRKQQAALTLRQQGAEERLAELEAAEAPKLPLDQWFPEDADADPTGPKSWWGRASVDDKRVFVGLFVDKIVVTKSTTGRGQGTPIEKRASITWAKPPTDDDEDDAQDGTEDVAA", "test": "cell_activity"}, "[2]": {"system": "T2, PhiC31 integrase mutant 1C1 (Bacteriophage Phi-C31)", "T2 sequence": "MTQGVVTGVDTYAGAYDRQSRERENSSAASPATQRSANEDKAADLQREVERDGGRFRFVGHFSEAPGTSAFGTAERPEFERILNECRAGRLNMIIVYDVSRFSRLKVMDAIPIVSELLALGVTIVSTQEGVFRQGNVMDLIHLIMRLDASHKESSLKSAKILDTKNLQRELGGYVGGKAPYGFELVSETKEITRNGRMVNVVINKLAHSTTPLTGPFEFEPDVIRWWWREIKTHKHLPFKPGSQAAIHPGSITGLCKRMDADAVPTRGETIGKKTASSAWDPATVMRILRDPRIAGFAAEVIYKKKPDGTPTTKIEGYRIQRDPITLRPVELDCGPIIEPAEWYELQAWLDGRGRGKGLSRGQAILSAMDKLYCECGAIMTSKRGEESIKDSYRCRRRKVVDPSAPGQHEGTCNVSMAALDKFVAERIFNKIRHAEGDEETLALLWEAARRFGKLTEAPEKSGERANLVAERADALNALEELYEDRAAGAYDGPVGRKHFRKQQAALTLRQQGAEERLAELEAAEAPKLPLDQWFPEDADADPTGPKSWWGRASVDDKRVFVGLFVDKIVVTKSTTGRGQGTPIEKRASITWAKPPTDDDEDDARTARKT", "test": "cell_activity", "conditions": "attB donor integration into 293 genome"}}, "data": [{"substance": "mouse pseudo attP mpsL1", "values": [{"measurement": "activity (% haploid genomes integrated)", "setting": "[1]; mouse liver, partner attB, qPCR, +/-0.89", "value": 1.8}]}, {"substance": "CGATGTAGGTCACGGTCTCGAAGCCGCGGTGCGGGTGCCAGGGCGTGCCCTTGGGCTCCCCGGGCGCGTACTCCACCTCACCCATCTGGTCCATCATGATGAACGGGTCGAGGTGGCGGTAGTTGATCCCGGCGAACGCGCGGCGCACCGGGAAGCCCTCGCCCTCGAAACCGCTGGGCGCGGTGGTCACGGTGAGCACGGGACGTGCGACGGCGTCGGCGGGTGCGGATACGCGGGGCAGCGTCAGCGGGTTCTCGACGGTCACGGCGGGCATGTCGA (double strand) [PhiC31 attB full length]", "values": [{"measurement": "activity (fold over background colonies)", "setting": "[2]", "value": "> 10"}]}, {"substance": "PhiC31 attB/attP in pBCPB+", "values": [{"measurement": "activity (% white colonies)", "setting": "[1]; Drosophila S2 cells, +/-11.7, background 1.7", "value": 47.8}]}]}
